Results taken from paper PMC4335029.

Target: T1, VexR-MBP (Vibrio cholerae O1 El Tor N16961) (UniProt Q9KVI0)
T1 sequence: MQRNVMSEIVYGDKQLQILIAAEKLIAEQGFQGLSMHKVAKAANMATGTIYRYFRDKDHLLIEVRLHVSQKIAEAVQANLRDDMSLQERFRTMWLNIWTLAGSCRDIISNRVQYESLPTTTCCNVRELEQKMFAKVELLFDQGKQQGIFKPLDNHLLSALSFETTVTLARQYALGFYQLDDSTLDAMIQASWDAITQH
Assay: EMSA

Sequence | binding
GCGGGAGTCGGCAGCGATAATAATCCGCTCACCGAGGATTACCAACAAAGAAACTGCCTTTACAAAAATTTACTGCACAAGTGTATTGCAAAACAGGGGCGCTGCCGACTCCCGC (double strand) [vexR1] | no binding
GCGGGAGTCGGCAGCGGCCGTACACTATTTCAGACATCACATTTCTCTGCAAATGAACGGTTGTTCATTATAGCGGCTAATACCCCCTGTTTTGCACGCTGCCGACTCCCGC (double strand) [vexR2] | binds
